Among the data in ChEMBL document CHEMBL1671727, “Expression, purification, and characterization of Aspergillus fumigatus sterol 14-alpha demethylase (CYP51) isoenzymes A and B” (Antimicrob Agents Chemother, 2010) are Km values, retold here.

Substrate in this data set: CC(C)=CCC[C@@H](C)[C@H]1CC[C@@]2(C)C3=C(CC[C@]12C)[C@@]1(C)CC[C@H](O)C(C)(C)[C@@H]1CC3
Briefly: Activity of Candida albicans CYP51.

By Km is commonly meant the substrate concentration at which the rate is half of its maximum.

B1: Lanosterol 14-alpha demethylase (Candida albicans SC5314) (protein)
chain: MAIVETVIDGINYFLSLSVTQQISILLGVPFVYNLVWQYLYSLRKDRAPLVFYWIPWFGSAASYGQQPYEFFESCRQKYGDVFSFMLLGKIMTVYLGPKGHEFVFNAKLSDVSAEDAYKHLTTPVFGKGVIYDCPNSRLMEQKKFAKFALTTDSFKRYVPKIREEILNYFVTDESFKLKEKTHGVANVMKTQPEITIFTASRSLFGDEMRRIFDRSFAQLYSDLDKGFTPINFVFPNLPLPHYWRRDAAQKKISATYMKEIKSRRERGDIDPNRDLIDSLLIHSTYKDGVKMTDQEIANLLIGILMGGQHTSASTSAWFLLHLGEKPHLQDVIYQEVVELLKEKGGDLNDLTYEDLQKLPSVNNTIKETLRMHMPLHSIFRKVTNPLRIPETNYIVPKGHYVLVSPGYAHTSERYFDNPEDFDPTRWDTAAAKANSVSFNSSDEVDYGFGKVSKGVSSPYLPFGGGRHRCIGEQFAYVQLGTILTTFVYNLRWTIDGYKVPDPDYSSMVVLPTEPAEIIWEKRETCMF
As for B1, the Km is 7.4 µM.
